Data as given in article PMC5119734.

How the values were obtained:
[1] = target: Group B Streptococcus glyceraldehyde 3-phosphate dehydrogenase, wild type (Streptococcus agalactiae (Group B Streptococcus)); assay: SEC; Superdex 200 in 25 mM Hepes, 100 mM NaCl, 5 mM beta-mercaptoethanol, pH 7.35
[2] = target: Group B Streptococcus glyceraldehyde 3-phosphate dehydrogenase, wild type (Streptococcus agalactiae (Group B Streptococcus)); assay: crystal structure; hanging drop vapor diffusion at 295 K, 20-28% PEG4000, 0.1 M MES pH 6.5; apo, mixed-holo, holo (2 mM NAD) and ternary (2 mM NAD, 11 mM DL-G3H) crystals; four subunits in the asymmetric unit

stoichiometry N [1]: 4
stoichiometry N [2]: 4
Substance: Group B Streptococcus glyceraldehyde 3-phosphate dehydrogenase, wild type (enzyme)
